# Test results from publication doi:10.1101/2024.02.17.580827 (bioRxiv, 2024).
# T1: FolK (purified protein) (E. coli, UniProt P26281 1-159)
# T1 sequence: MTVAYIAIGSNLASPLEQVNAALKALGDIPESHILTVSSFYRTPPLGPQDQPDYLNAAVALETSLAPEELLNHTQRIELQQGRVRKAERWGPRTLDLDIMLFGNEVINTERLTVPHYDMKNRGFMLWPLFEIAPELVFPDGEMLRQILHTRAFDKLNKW
# Target: T1, FolK (purified protein)
# Test: Raman spectroscopy
row,Binder,Kd
1,WT DHFR (purified protein) (enzyme) MISLIAALAVDRVIGMENAMPWNLPADLAWFKRNTLNKPVIMGRHTWESIGRPLPGRKNIILSSQPGTDDRVTWVKSVDEAIAACGDVPEIMVIGGGRVYEQFLPKAQKLYLTHIDAEVEGDTHFPDYEPDDWESVFSEFHDADAQNSHSYCFEILERR,22 µM
2,D132H DHFR (purified protein) (enzyme) MISLIAALAVDRVIGMENAMPWNLPADLAWFKRNTLNKPVIMGRHTWESIGRPLPGRKNIILSSQPGTDDRVTWVKSVDEAIAACGDVPEIMVIGGGRVYEQFLPKAQKLYLTHIDAEVEGDTHFPDYEPDHWESVFSEFHDADAQNSHSYCFEILERR,8.1 µM
3,D144N DHFR (purified protein) (enzyme) MISLIAALAVDRVIGMENAMPWNLPADLAWFKRNTLNKPVIMGRHTWESIGRPLPGRKNIILSSQPGTDDRVTWVKSVDEAIAACGDVPEIMVIGGGRVYEQFLPKAQKLYLTHIDAEVEGDTHFPDYEPDDWESVFSEFHDANAQNSHSYCFEILERR,10 µM
4,N23V DHFR (purified protein) (enzyme) MISLIAALAVDRVIGMENAMPWVLPADLAWFKRNTLNKPVIMGRHTWESIGRPLPGRKNIILSSQPGTDDRVTWVKSVDEAIAACGDVPEIMVIGGGRVYEQFLPKAQKLYLTHIDAEVEGDTHFPDYEPDDWESVFSEFHDADAQNSHSYCFEILERR,5.1 µM
